Source: PMC4131202 (2013)

Target: actin filaments (UniProt P68133)
Assay: pelleting assay

- Kd: ~3000 nM
B1: End4p TLD (protein)
chain: LLNAPGENIEELVDNQLAETAQAIQQAILRLQNIAAKPKDDSLSPSELQVHDSLLSASIAITEAIARLIKAATASQAEIVAQGRGSSSRGAFYKKHNRWTEGLISAAKAVARATTTLIETADGVVNGTSSFEHLIVACNGVSAATAQLVAASRVKANFASKVQDHLEDAAKAVTEACKALVRQVESVALKAKEVQHEDFSSLGVHEYRRKEIEQQVQILKLENDLVAARRRLFDMRKTSYHVA
